Laboratory results: the nanobody polyreactivity screen of Harvey et al. (2022)

experiment: yeast display, Sf9 membrane polyspecificity reagent, FACS + sequencing; frameworks hold sequencing errors
In short: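 In a synthetic yeast display library (Saccharomyces cerevisiae BJ5465), nanobody expression was induced with galactose for 36–48 hours. FACS gates were set low and high (top ~1%) using anti-HA fluorescence for expression and streptavidin fluorescence for binding of the Sf9 membrane reagent. Each polyreactivity label is drawn from the gate of origin.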

Sequence | polyreactivity (PSR sort gate)
QVQLVESGGGLVQAGGSLRLSCAASGSTFTIYDMGWSRQAPGKERELVASISQGAGSTYYADSVKGRFTISRDNAKNTVYLQMNSQKPEDTAVYYCAADWYQSYVFVYWEGEYWAQGTQVTVSS | high polyreactivity
QVQLVESGGGLVQAGGSLRLSCAASGSTFTIYVIGWYRTAPGKERELVAAINGGGRTNYADSVKGRFTISRDNAKNTVYLQMNSLKPEDTAVYYCAADGLSNVRQMDYWGQGTQVTVSS | low polyreactivity
QVQLVESGGGLVQAGGSLRLSCAASGSTFTKYAMGWYRQEPGKDREFVAGINYSGGSTYYADSVKVRFTISRDNAKNTVYLLMKSLKPEDTAVYYCNARKQNRRGAKYDYWGQGTQVTVSS | high polyreactivity
QVQLVESGGGLVQAGGSLRLSCAASGSTFTLNAMGWYRQAPGKERELVADISWSSGRTYYADSVKGRFTISRDNAKNTVYFQMNSLKPEDTAVYYCATDDFWNVKFYAYYPEFDYWGQGTQVTVSS | low polyreactivity
QVQLVESGGGLVQAGGSLRLSCAASGSTFTLNAMGWYRQAPGKERELVADISWSSGRTYYADSVKGRVTISRDNAKNTVYLQMNSLKPEDTAVYYCATDDFWNVKFYAYYPDFDHWGQGTQVTVSS | low polyreactivity
QVQLVESGGGLVQAGGSLRLSCAASGSTFTLYAMGWYRQAPGKERELVAAISGIGDSTYYADSVKGRFTISRDNAKNTVYLQMNSLKPEDTAVYYCAADGEYRYDWEYESWGQGTKVTVSS | low polyreactivity
QVQLVESGGGLVQAGGSLRLSCAASGSTFTLYAMGWYRQAPGKERELVAAISWSSGSTYYADSVKGRFTISRDNAKNTVYLQMNSLKPEDTAVYYCNARRFGLTQYYYWGQGTQVTVSS | low polyreactivity
QVQLVESGGGLVQAGGSLRLSCAASGSTFTLYAMGWYRQAPGKERELVAAISWSTTSTYYADSVKGRFTISRDNAKNTVYLQMNSLKPEDTAVYYCAAELYRAEYDYWGQGTQVTVSS | high polyreactivity
QVQLVESGGGLVQAGGSLRLSCAASGSTFTNNDMGWYRPAPGKERELVAAITDSDGITYYADSVKGRFTISRDNAKNTVYLQMNSLKPDDSAVYYCAAYYYGSVAQDREYWGQGTQVTVSS | high polyreactivity
QVQLVESGGGLVQAGGSLRLSCAASGSTFTNYAMGWYRPAPGKERELVARITSSGSRTYYADSVKGRFTISRDNAKNTVYLQMNSLKPEDTAVYYCNAETYYLRYGRGYRRFDYWGQGTQVTVSS | high polyreactivity
QVQLVESGGGLVQAGGSLRLSCAASGSTFTPNAMGWYRQAPGKERELVAAIRYTGVGTYYADSVKGRFTISRDNAKNTVYLQMNSLKPEDTAVYYCNRVSRYYNYDYWGQGTQVTVSS | high polyreactivity
QVQLVESGGGLVQAGGSLRLSCAASGSTFTPNAMVWYRQAPGKERELVAAINWSDSSTYYADSVKGRFTISRDNAKNTVYLQMNSLKPEDTAVYYCAAAAQYGQLQVPVYYWGQGTQVTVSS | low polyreactivity
QVQLVESGGGLVQAGGSLRLSCAASGSTFTPYAMGWYRQAPGQEREFVAAITSIGGSTYYADSVKGRITISRDNAKNTVYLQMIRLKPEDTAVYNCAADYSEWTLWNDYWGQCTQVTVSS | high polyreactivity
QVQLVESGGGLVQAGGSLRLSCAASGSTFTPYGMGWYRQAPGKERELVAAITVSGGRTYYADSVKGRFTISRDNAKNTVYLQMNSLKPEDTAVYYCAAVYLRGDGEYDYWGQGTQVTVSS | low polyreactivity
QVQLVESGGGLVQAGGSLRLSCAASGSTFTPYTMGWYRKAPGKETELVAAIRYGGGSTYYADSVKGRFTISRDNAKNTVYLQMNSLKPEDTAVYYCAVDSFYSGGTYDSDGYWGQGTQVTVSS | low polyreactivity
QVQLVESGGGLVQAGGSLRLSCAASGSTFTRNAMGWYRPAPGKERELVAAITSSGGYTYYADSVKGRFTISRDNAKNTVYLQMNSLKPEDTAVYYCAAYPHRPRDRELDHWGQGTQVTVSS | low polyreactivity
QVQLVESGGGLVQAGGSLRLSCAASGSTFTRYVMGWYRQAPGKERELVAAISKRGGSTYYADSVKGRFTISRDNAKHTVYLQMNSLKPVDPAVYYCNRVSRAPFDYWGQGTQVTVSS | high polyreactivity
QVQLVESGGGLVQAGGSLRLSCAASGSTFTRYVMGWYRQAPGKERELVAAISKRGGSTYYADSVKGRFTISRDNAKNTVYLQMNSLKPEDTAVYYCNRVSRAPFDYWGQGTQVTVSS | high polyreactivity
QVQLVESGGGLVQAGGSLRLSCAASGSTFTSNAMGWYRQAPGKEREFVAAISVGGGITYYADSVKGRFTISRDNAKISVYLQMNSLKPEDTAVYYCAADGEYPHSEDFEYWGQGTQVTVSS | low polyreactivity
QVQLVESGGGLVQAGGSLRLSCAASGSTFTSNAMGWYRQAPGKERELVAAISFSDASTYYADSVKGRFTISRDNAKKTVYLQMNRLKPEDTAVYYCNADYPTTAYDYCGQGTQVTVSS | low polyreactivity
QVQLVESGGGLVQAGGSLRLSCAASGSTFTSNAMGWYRQAPGKERELVAAISSGGSTSYADSVKGRFSISRDNAKNTVYLQMNSLKPEDTAVYYCAVGVLYAGYFYRYRYYYWGQGTQVTVSS | high polyreactivity

Sequence | polyreactivity (PSR sort gate)
QVQLVESGGGLVQAGGSLRLSCAASGSTFTSNAMGWYRQAPGKERELVASISGSGGRTDYADSVKGRFTISRDNAKNTVYLQMNSLKPEDTAVYYCNAESRNLYSTQFDYWGQGTQVTVSS | low polyreactivity
QVQLVESGGGLVQAGGSLRLSCAASGSTFTSNAMGWYRQAPGKERELVASISGSGGRTYYADSVKGRFTISRDNAKNTVYLQMNSLKPEDTAVYYCNAESRNLYSTQFDYLGQGTQVTVSS | low polyreactivity
QVQLVESGGGLVQAGGSLRLSCAASGSTFTSYAMGWYRQAPGKERELVAAINWSGGSTYYADSVKGRFTISRDIAKNTVYLQMNSLKPEDTAVYYCAVLYRYGYDYWGQGTQVTVSS | low polyreactivity
QVQLVESGGGLVQAGGSLRLSCAASGSTFTSYAMGWYRQAPGKERELVAAITSRGGTSYADSVKGRFTISRDNAKNTVYLQMNSLKPEDTAVYYCAARATYKKYPYVKWYDYWGQGPQVTVSS | high polyreactivity
QVQLVESGGGLVQAGGSLRLSCAASGSTFTSYAMGWYRQAPGKERELVAAITYGSGTTYADSVKGRFTISRDNAKNTVYLQMNSLKPEDTAVYYCAADFYYPVLGHGFPTYEYDYWGQGTQVTVSS | low polyreactivity
QVQLVESGGGLVQAGGSLRLSCAASGSTFTSYDMGWYRQAPGKERELVAAITISSGGTYYADSVKGRFTISRDNAKITVYLQMNSLKPEDTAVYYCAADIFADASYDYWGQGTQVTVSS | low polyreactivity
QVQLVESGGGLVQAGGSLRLSCAASGSTFTTNAMGWDRQAPGKERELVAAITWSVGSTYYADSVKGRFTISRDYAKNTVYLQMNSVKPEDNAVYYCAAYHPPGDTYEYWGQGTQVTVSS | low polyreactivity
QVQLVESGGGLVQAGGSLRLSCAASGSTFTTYAMGWYRQAPGKERELVAVITDSGGTYYADSVKGRFTISRDNAKNTVYLQMNSLKPEDTAVYYCNRFFPPTDYEFDSWGQGTQVTVSS | low polyreactivity
QVQLVESGGGLVQAGGSLRLSCAASGSTFTTYAMGWYRQAPGKESELVAAITWSVGSTYYADSVMGRFTISRDNAKNTVYLQMNSLKPEDTAVYYCAADPTGGVGFDGYYWGQGTQVTVSS | low polyreactivity
QVQLVESGGGLVQAGGSLRLSCAASGSTFTVNGMGWYRQAPGKERELVASITWSGGSTYYADSVKGRFTISRDNAKNTVYLLMNSLKPEDTAVYYCAADEKLYITGYDYWGHGTQVTVSS | low polyreactivity
QVQLVESGGGLVQAGGSLRLSCAASGSTFTVNGMGWYRQAPGKERELVASITWSGGSTYYADSVKGRFTISRDNAKNTVYLQMNSLNPEDTAVYYCAADEKLYITGYDYWVQGTQVTVSS | low polyreactivity
QVQLVESGGGLVQAGGSLRLSCAASGSTFTVNGMGWYRQAPGKERELVASITWSGGSTYYADTVKGRFTISRDNAKNTVYLQMNSLKPEDTAVYYCAADEKLYITGYDYWGQGTQVTVSS | low polyreactivity
QVQLVESGGGLVQAGGSLRLSCAASGSTFTVYAMGWYRQAPGKERELVAAISSSTGSTYYADSVKGRFTISRDNAKNTVYLQMNSLKPEDTAVYYCAADVYQVTTSSYTEFEYWGQGTQVTVSS | low polyreactivity
QVQLVESGGGLVQAGGSLRLSCAASGSTFTWNVMGWYRQAPGKERELVASITSGDSTYADSVKGRFTISRDNAKNTVYLQMNSLKPEDTAVYYCNVGYDQEKYGYWGQGTQVTVSS | low polyreactivity
QVQLVESGGGLVQAGGSLRLSCAASGSTFTWYAMGWSRQAPGKERELVADISYGGGSTYYADSVKGRFTISRDNAKNTVYLQMNSLKPEDTAVYYCAAESIPYYRYDYWGQGTQVTVSS | low polyreactivity
QVQLVESGGGLVQAGGSLRLSCAASGSTFTYNAMGWYRQAPGKERELVAVIRPGGNTNDADSVKGRFTISRDNAKNTVYLQMNSLKPEDTAVYYCAKYFGNYSIYDYWGQGTQVTVSS | low polyreactivity
QVQLVESGGGLVQAGGSLRLSCAASGSTFTYNARGWYRQAPGKERELVAVIRPGGTTNYADSVKGRFTISRDNAKNTVYLQMNSLKPEDTAVYYCAKFFGNYSIYDYWGQGTQVTVSS | low polyreactivity
QVQLVESGGGLVQAGGSLRLSCAASGSTFTYNTMGWYRQAPGKERELVAAINTTGNTYADSVKGRFTISRDNAKNTVYLQMNSLKPEDTAVYYCNTDYVPRRHDMDYWGQGTQVTVSS | low polyreactivity
QVQLVESGGGLVQAGGSLRLSCAASGSTFTYNTMGWYRQAPGKERELVAAISSGGSTYYADSVKGRFTISRDNAKNTVYLQMNSLKPEDTAVYYCAATAQKDSRYGSRYYYWGQGTQVTVSS | high polyreactivity
QVQLVESGGGLVQAGGSLRLSCAASGSTFTYYAMGWYRQAPGKERELVAAIRNGGSTNYADSVKGRFTISRDNAKNTVYFQMNSLKPEDTAVSYCAADQYYYTQPCDMDYWGQGTQVTVSS | high polyreactivity
